# Results as given in paper doi:10.1101/2024.01.05.574328.
# Target: AcrIF25 (A. baumannii)
# Experiment: cross-linking
substance,measurement,value
AcrIF25 (natural protein),stoichiometry N,2
